Data published in patent US20140175018A1.
Each block holds one binder with its values, some of them ahead of it. Bridge positions count the residues as written; N and C are the ends. Side chains are listed from the residue outwards. * marks the point of attachment. Biotin = O=C1N[C@H]2[C@H](CS[C@H]2CCCCC(=O)*)N1; PEG = not defined here

How the values were obtained:
Assay in all cases: cell-based or functional assay
[1] = biological target: T1, chemokine (C-C motif) receptor 10 (CCR10) (human) (UniProt P46092)
T1 sequence (looked up): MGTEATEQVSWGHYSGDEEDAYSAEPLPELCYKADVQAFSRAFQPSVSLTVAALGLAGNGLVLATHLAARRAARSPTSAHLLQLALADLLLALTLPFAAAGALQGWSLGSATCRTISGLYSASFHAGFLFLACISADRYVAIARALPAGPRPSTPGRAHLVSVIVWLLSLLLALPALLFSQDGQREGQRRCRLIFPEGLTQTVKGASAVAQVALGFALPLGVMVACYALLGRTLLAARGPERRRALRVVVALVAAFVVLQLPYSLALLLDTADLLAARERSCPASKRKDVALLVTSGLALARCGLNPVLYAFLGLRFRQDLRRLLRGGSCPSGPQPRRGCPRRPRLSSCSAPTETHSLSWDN

[2] = biological target: chemokine (C-X-C motif) receptor 3 (CXCR3) (human) (UniProt P49682)
[3] = biological target: T2, chemokine (C-C motif) receptor 4 (CCR4) (human) (UniProt P51679)
T2 sequence (looked up): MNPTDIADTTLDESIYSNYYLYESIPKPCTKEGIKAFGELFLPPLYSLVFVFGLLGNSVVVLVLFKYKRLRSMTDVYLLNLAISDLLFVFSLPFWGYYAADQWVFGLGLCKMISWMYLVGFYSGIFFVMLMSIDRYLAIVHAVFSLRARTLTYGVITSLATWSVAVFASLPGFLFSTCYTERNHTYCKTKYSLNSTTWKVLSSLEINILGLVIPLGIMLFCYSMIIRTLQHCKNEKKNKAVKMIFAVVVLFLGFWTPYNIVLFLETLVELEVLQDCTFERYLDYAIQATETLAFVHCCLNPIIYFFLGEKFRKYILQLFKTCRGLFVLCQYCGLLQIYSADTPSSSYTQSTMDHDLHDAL

Sequence of chemokine (C-X-C motif) receptor 3 (CXCR3) (human) (P49682 whole entry): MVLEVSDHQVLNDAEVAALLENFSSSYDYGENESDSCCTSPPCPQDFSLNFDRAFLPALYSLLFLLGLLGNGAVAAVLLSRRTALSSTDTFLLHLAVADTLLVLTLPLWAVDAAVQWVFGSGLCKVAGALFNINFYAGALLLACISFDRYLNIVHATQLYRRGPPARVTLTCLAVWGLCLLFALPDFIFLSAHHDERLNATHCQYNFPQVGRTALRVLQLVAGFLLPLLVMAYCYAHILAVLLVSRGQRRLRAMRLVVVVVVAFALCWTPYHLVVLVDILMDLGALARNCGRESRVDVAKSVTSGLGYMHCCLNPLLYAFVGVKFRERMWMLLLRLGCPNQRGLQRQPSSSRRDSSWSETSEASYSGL

B1: biotinCTAC (CCL27): CTAC derivatised at Lys(87) with PEG-Biotin (ligand)
chain: FLLPPSTACCTQLYRKPLSDKLLRKVIQVELQEADGDCHLQAFVLHLAQRSICIHPQNPSLSQWFEHQERKLHGTLPKLNFGMLRKK([PEG-Biotin])G-OH
modifications: disulfide 10-53, 9-38; reading uncertain
EC50 (agonist activity, Aequorin assay) [1]: 49.4 nM

B3: biotinITAC (CXCL11): ITAC derivatised with Biotin at an additional C-terminal Lysine after a PEG spacer (ligand)
chain: FPMFKRGRCLCIGPGVKAVKVADIEKASIMYPSNNCDKIEVIITLKENKGQRCLNPKSKQARLIIKKVERKNFX
modifications: X74 = PEG-K(Biotin)
EC50 (agonist activity, Aequorin assay) [2]: 15.7 nM

Second part, the binder after the results:

EC50 (agonist activity, Aequorin assay) [2]: 0.7 nM
B2: recombinant native ITAC (ligand, UniProt O14625 22-94, looked up)
chain: FPMFKRGRCLCIGPGVKAVKVADIEKASIMYPSNNCDKIEVIITLKENKGQRCLNPKSKQARLIIKKVERKNF

EC50 (agonist activity, Aequorin assay) [1]: 33.5 nM
B4: recombinant native CTAC (ligand, UniProt Q9Y4X3 25-112, looked up)
chain: FLLPPSTACCTQLYRKPLSDKLLRKVIQVELQEADGDCHLQAFVLHLAQRSICIHPQNPSLSQWFEHQERKLHGTLPKLNFGMLRKMG

EC50 (agonist activity, Aequorin assay) [3]: 3.6 nM
B5: recombinant native MDC (ligand, UniProt O00626 25-93, looked up)
chain: GPYGANMEDSVCCRDYVRYRLPLRVVKHFYWTSDSCPRPGVVLLTFRDKEICADPRVPWVKMILNKLSQ
